Here are results for 6 molecules from patent US6147204, “Nucleic acid ligand complexes” (NeXstar Pharmaceuticals, Inc.).

Series [1] has as its target T1, VEGF (vascular endothelial growth factor) (UniProt P15692-4 P15692-4:27-191). In words: competition; not an effective competitor up to 2 uM. The conditions noted are these: chain copies: 2. The method, then:
(§1) NX278-Liposome Complex was prepared by incubating NX-278 (1 mg) (FIG. 1N; SEQ ID NO: 19) with of a mixture of DSPC:cholesterol (50 mg) in 10 mM phosphate (pH 7.4) buffer containing 9% sucrose and sonicated for 15–30 min using a probe-type sonicator until opalescent solution was obtained. The control Nucleic Acid Ligand-Liposome Complex containing a sequence scrambled analog of ligand NX-278 (scNX278) (FIG. 1W; SEQ ID NO:28) was prepared in the same manner. The size of Liposome particles (typically […]), determined in a particle analyzer (Leeds & Northrup Model Microtrack UPA 150, Horsham, Pa.) was similar to those obtained in the absence of the Nucleic Acid Ligand.

Series [2] addresses T1, VEGF (vascular endothelial growth …). Put plainly: 1 uM not inhibitory in guinea pig Miles assay. As to conditions: chain copies: 2. The text has this:
The ability of NX278-liposome to inhibit the vascular permeability activity of VEGF in vivo was examined.

Series [3] shares this target. In words: competition; ED50, competition ELISA against biotin-labeled VEGF ligand on immobilized VEGF; printed 10^-9 M. The conditions noted are these: chain copies: 2. A general note: An ELISA detects its analyte on a solid surface through an enzyme-linked reagent.
For series [4] the target is unchanged. Put plainly: competition; apparent ED50, competition ELISA; printed 10^-7 M. The conditions noted are these: chain copies: 2. The method, then: as §1
Series [5] has the same target. In words: cell_activity; inhibition of HUVEC proliferation with 10 ng/ml VEGF; KS cells (KSY-1) IC50 about 100 nM. As to conditions: chain copies: 2. The method, then:
The effects of NX278-liposome, scNX278-liposome and NX213 on the proliferation of human umbilical vein endothelial cells (HUVEC) and Kaposi's Sarcoma (KS) cells in tissue culture were examined. HUVECs were grown in the presence of VEGF (10 ng/ml) in IMDM:Ham's F12 (1:1) medium containing 10% fetal calf serum (FCS) and heparin (45 μg/ml). Cells were plated in 24-well gelatin-coated plates at a density of 20,000 cells per well on day zero and treated with the above ligands at concentrations between 0.1 nM to 1 μM on days 1, 2, and 3 (replacing the media along with the ligands). Cell count was performed on day 4. KS cell line KSY-1 was plated in 24-well gelatin coated plates at a density of 7,500–10,000 cells per well on day zero in medium containing RPMI 1640 supplemented with 2% FCS, L-glutamine, penicillin and streptomycin. Nucleic Acid Ligands were added at concentrations between 0.1 nM to 1 μM in fresh medium on day 1, 2, and 3 and the cell count was performed on day 4.

The target in series [6] is T2, bFGF (basic fibroblast growth factor) (UniProt P09038 P09038:143-288). Put plainly: binding affinity stated as 1 nM. As to conditions: blunt-ended hairpin, Tm 68 C.
T2 sequence (P09038 143-288, one chain of several): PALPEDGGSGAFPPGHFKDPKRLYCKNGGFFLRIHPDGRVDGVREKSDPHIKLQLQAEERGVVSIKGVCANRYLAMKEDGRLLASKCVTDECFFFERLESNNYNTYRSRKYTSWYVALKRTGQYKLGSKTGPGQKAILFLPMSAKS
For series [7], the target named is T2, bFGF (basic fibroblast growth factor). In words: 5'-32P binding assay; identical to 225T3. The conditions noted are these: label: 5'-32P; hairpin.
Series [8] has the same target. Put plainly: 5'-32P binding assay; same affinity as unconjugated 225T3. The conditions noted are these: label: 5'-32P; hairpin. The method, then: Preparation and Functional Properties of PEG Conjugated and Cholesterol-Derivatized Nucleic Acid Ligands A PEG 3400 conjugate of a Nucleic Acid Ligand retains the binding affinity of the non-conjugated molecule The ability of a bFGF ligand/PEG-3400 conjugate to bind bFGF was tested. Molecule 225T3 (SEQ ID NO: 10), a high affinity DNA ligand to bFGF, was chosen for conjugation with PEG via a primary amine-NHS coupling reaction. […] Ligand 225T3 was modified with a 3'-amino-modifier C7 CPG (Glen Research, Sterling, Va.) using standard DNA synthesis methods and will be referred to as 225T3N (SEQ ID NO:11). 225T3N was reacted with the N-hydroxysuccinimidyl (NHS) active ester of PEG (avg. MW 3400) in 20% (v/v) […] 80% (v/v) 0.5 M sodium bicarbonate buffered at pH 8.5. The resulting conjugate, 225T3N-PEG-3400 (SEQ ID NO: 14), was purified from the free DNA on a 12% polyacrylimide/7 M urea gel. The conjugate was 5' end-labeled with ^32P and a binding assay was performed.

T1 sequence (P15692 other isoform, or with tags, fused parts or gaps): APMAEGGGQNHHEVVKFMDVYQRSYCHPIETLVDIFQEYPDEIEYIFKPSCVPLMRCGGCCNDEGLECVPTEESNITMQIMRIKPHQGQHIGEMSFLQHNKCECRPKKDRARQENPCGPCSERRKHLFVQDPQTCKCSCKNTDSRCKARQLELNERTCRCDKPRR

B1: scNX278-liposome (mixed)
mixed: TTTTGUCGGUACGGAGUGGACCGUCACGTTTTT
modifications: dialkylglycerol (DAG), embedded in DSPC:cholesterol liposome
In series [1], B1 displayed an EC50 of more than 2000 nM. Also, the binding result in series [2] is recorded as “no binding”.

B2: NX213 (mixed)
mixed: TTTTACCCUGAUGGUAGACGCCGGGGUGTTTTT
For the molecule B2, the EC50 in series [3] is approximately 1 nM.

B3: NX278-liposome (mixed)
mixed: B2 mixed
modifications: 5'-dialkylglycerol (DAG), embedded in DSPC:cholesterol liposome
For B3, in series [4], the EC50 is approximately 100 nM. The IC50 in series [5] was approximately 300 nM.

B4: 225T3 (ssDNA)
DNA: GCGGGGCTACGTACCGGGGCTTTGTAAAACCCCGC
In series [6], B4 came in with a Kd of 1 nM.

B5: 225T3-Cholesterol (ssDNA)
DNA: B4 DNA
modifications: 3'-tetraethyleneglycol cholesterol
For the molecule B5, the affinity in series [7], expressed as Kd, was 1 nM.

B6: 225T3N-PEG-3400 (ssDNA)
DNA: B4 DNA
modifications: 3'-amino modifier C7 coupled to PEG (avg. MW 3400)
For B6, the dissociation constant (Kd) in series [8] is 1 nM.

As usually defined, the EC50 is the concentration giving half of the maximal effect. The term IC50 denotes the concentration that inhibits the measured activity by half. The term Kd denotes the equilibrium constant for the complex coming apart.
